Source: patent US8871205B2, “Methods and compositions for the treatment of immune disorders” (The University of North Carolina at Chapel Hill, priority 2009, dated 2014)

System: WT or Plxna4−/− peritoneal macrophages
Test: TNF-α and IL-6 production (RT-PCR, ELISA) in peritoneal macrophages stimulated with Sema3A-Fc or Sema6A-Fc in the absence or presence of LPS
Type: cell-based, mouse
Conditions: semaphorin alone, absence of LPS; macrophages
Protocol: Messenger RNA (FIG. 7A) or protein (FIG. 7B) levels of TNF-α and IL-6 were measured by RT-PCR and ELISA, respectively. The IgG Fc fragment (100 μg/ml) was used as a negative control. WT and Plxna4^−/− mice (n=7˜9 per group) were pretreated with either Sema3A-Fc or IgG Fc control proteins at a dosage of 25 μg per kg body weight 1 h prior to CLP procedure (FIG. 7C). Survival rate was monitored for 5 days. τP<0.05 compared with WT mice pretreated with Sema3A-Fc. WT mice (n=4 per group) were pretreated with either Sema3A-Fc or IgG Fc control proteins, followed by CLP surgery (FIG. 7D). Inflammatory cytokines in peritoneal lavage collected 4 h after CLP were determined by ELISA. * P<0.05 compared to peritoneal lavage from WT mice pretreated with Sema3A-Fc (FIG. 7E). […] Inflammatory cytokines in peritoneal lavage collected 4 h after CLP were determined by ELISA. *P<0.05 compared with peritoneal lavage from WT mice pretreated with Sema3A-Fc (FIG. 7G).
Total peritoneal cells were harvested from the peritoneal cavities of naïve WT or Plxna4^−/− mice with two 10 ml cold sterile PBS wash. […] The remaining cells were thoroughly washed with PBS and counted in a hemocytometer. Cytospins were prepared and stained with Diff-Quik solutions, and the number of peritoneal macrophages was determined. […]

B1: Sema6A: human Sema6A-Fc (1146-S6, R&D); chimeric protein of human IgG1 Fc fragment fused to Sema6A (protein)
chain: GFPEDSEPISISHGNYTKQYPVFVGHKPGRNTTQRHRLDIQMIMIMNGTLYIAARDHIYTVDIDTSHTEEIYCSKKLTWKSRQADVDTCRMKGKHKDECHNFIKVLLKKNDDALFVCGTNAFNPSCRNYKMDTLEPFGDEFSGMARCPYDAKHANVALFADGKLYSATVTDFLAIDAVIYRSLGESPTLRTVKHDSKWLKEPYFVQAVDYGDYIYFFFREIAVEYNTMGKVVFPRVAQVCKNDMGGSQRVLEKQWTSFLKARLNCSVPGDSHFYFNILQAVTDVIRINGRDVVLATFSTPYNSIPGSAVCAYDMLDIASVFTGRFKEQKSPDSTWTPVPDERVPKPRPGCCAGSSSLERYATSNEFPDDTLNFIKTHPLMDEAVPSIFNRPWFLRTMVRYRLTKIAVDTAAGPYQNHTVVFLGSEKGIILKFLARIGNSGFLNDSLFLEEMSVYNSEKCSYDGVEDKRIMGMQLDRASSSLYVAFSTCVIKVPLGRCERHGKCKKTCIASRDPYCGWIKEGGACSHLSPNSRLTFEQDIERGNTDGLGDCHNSFVALNGHSSSLLPSTTTSDSTAQEGYESRGGMLDWKHLLDSPDSTDPLGAVSSHNHQDKKGVIRESYLKGHDQLVPVT
modifications: left off: a dimerising Fc or GST
notes: human Sema6A-Fc (1146-S6, R&D); chimeric protein of human IgG1 Fc fragment fused to Sema6A
- TNF-α and IL-6 production: Neither Sema3A nor Sema6A alone induced
